From US20170073659

Biological target: GFP-KRS

B1: caspase-8 (protein)
chain: MDFSRNLYDIGEQLDSEDLASLKFLSLDYIPQRKQEPIKDALMLFQRLQEKRMLEESNLSFLKELLFRINRLDLLITYLNTRKEEMERELQTPGRAQISAYRVMLYQISEEVSRSELRSFKFLLQEEISKCKLDDDMNLLDIFIEMEKRVILGEGKLDILKRVCAQINKSLLKIINDYEEFSKERSSSLEGSPDEFSNGEELCGVMTISDSPREQDSESQTLDKVYQMKSKPRGYCLIINNHNFAKAREKVPKLHSIRDRNGTHLDAGALTTTFEELHFEIKPHDDCTVEQIYEILKIYQLMDHSNMDCFICCILSHGDKGIIYGTDGQEAPIYELTSQFTGLKCPSLAGKPKVFFIQACQGDNYQKGIPVETDSEEQPYLEMDLSSPQTRYIPDEADFLLGMATVNNCVSYRNPAEGTWYIQSLCQSLRERCPRGDDILTILTEVNYEVSNKDDKKNMGKQMPQPTFTLRKKLVFPSD
amount of KRS cleaved after caspase-8 overexpression (western blot with anti-GFP antibody): the amount of KRS cleaved was increased with the increasing amount of caspase-8
